Measurements from PMC10397247.

Experiments:
4H2438-bH = biological target: T1, 4H2438-bH; assay: two-hybrid library CCNG1;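 note: natural log of median RNA to DNA barcode read ratio; higher means stronger binding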
T1 chain: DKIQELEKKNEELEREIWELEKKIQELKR

4H2473-bH = biological target: T2, 4H2473-bH; assay: two-hybrid library CCNG1;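 note: natural log of median RNA to DNA barcode read ratio; higher means stronger binding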
T2 chain: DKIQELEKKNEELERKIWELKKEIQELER

4H2503-bH = biological target: T3, 4H2503-bH; assay: two-hybrid library CCNG1;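 note: natural log of median RNA to DNA barcode read ratio; higher means stronger binding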
T3 chain: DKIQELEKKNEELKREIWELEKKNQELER

4H2588-bH = biological target: T4, 4H2588-bH; assay: two-hybrid library CCNG1;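 note: natural log of median RNA to DNA barcode read ratio; higher means stronger binding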
T4 chain: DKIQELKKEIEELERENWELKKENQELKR

4H2692-bH = biological target: T5, 4H2692-bH; assay: two-hybrid library CCNG1;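 note: natural log of median RNA to DNA barcode read ratio; higher means stronger binding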
T5 chain: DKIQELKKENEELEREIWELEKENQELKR

4H2717-bH = biological target: T6, 4H2717-bH; assay: two-hybrid library CCNG1;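 note: natural log of median RNA to DNA barcode read ratio; higher means stronger binding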
T6 chain: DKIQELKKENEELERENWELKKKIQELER

4H2839-bH = biological target: T7, 4H2839-bH; assay: two-hybrid library CCNG1
T7 chain: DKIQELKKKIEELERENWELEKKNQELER

4H2915-bH = biological target: T8, 4H2915-bH; assay: two-hybrid library CCNG1
T8 chain: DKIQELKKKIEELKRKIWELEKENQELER

4H3057-bH = biological target: T9, 4H3057-bH; assay: two-hybrid library CCNG1
T9 chain: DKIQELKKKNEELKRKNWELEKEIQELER

4H319-bH = biological target: T10, 4H319-bH; assay: two-hybrid library CCNG1
T10 chain: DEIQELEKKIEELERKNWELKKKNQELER

4H3277-bH = biological target: T11, 4H3277-bH; assay: two-hybrid library CCNG1
T11 chain: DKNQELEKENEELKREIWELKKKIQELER

4H348-bH = biological target: T12, 4H348-bH; assay: two-hybrid library CCNG1
T12 chain: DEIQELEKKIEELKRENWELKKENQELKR

4H40-bH = biological target: T13, 4H40-bH; assay: two-hybrid library CCNG1
T13 chain: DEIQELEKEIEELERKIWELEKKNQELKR

4H477-bH = biological target: T14, 4H477-bH; assay: two-hybrid library CCNG1
T14 chain: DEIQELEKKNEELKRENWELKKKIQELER

4H492-bH = biological target: T15, 4H492-bH; assay: two-hybrid library CCNG1
T15 chain: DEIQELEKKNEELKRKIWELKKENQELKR

4H741-bH = biological target: T16, 4H741-bH; assay: two-hybrid library CCNG1
T16 chain: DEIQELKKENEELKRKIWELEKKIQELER

4H3601-bN = biological target: T17, 4H3601-bN; assay: two-hybrid library CCNG1
T17 chain: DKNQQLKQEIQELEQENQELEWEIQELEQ

4H3907-bN = biological target: T18, 4H3907-bN; assay: two-hybrid library CCNG1
T18 chain: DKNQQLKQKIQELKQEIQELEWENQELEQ

4H4038-bN = biological target: T19, 4H4038-bN; assay: two-hybrid library CCNG1
T19 chain: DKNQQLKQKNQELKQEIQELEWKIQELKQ

4H1454-AA = biological target: T20, 4H1454-AA; assay: two-hybrid library CCmax
T20 chain: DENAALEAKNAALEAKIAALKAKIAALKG

4H1558-AA = biological target: T21, 4H1558-AA; assay: two-hybrid library CCmax; settings: mean of both orientations
T21 chain: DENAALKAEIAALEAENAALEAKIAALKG

4H1913-AA = biological target: T22, 4H1913-AA; assay: two-hybrid library CCmax; settings: mean of both orientations
T22 chain: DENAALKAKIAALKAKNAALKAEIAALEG

4H249-AA = biological target: T23, 4H249-AA; assay: two-hybrid library CCmax; settings: mean of both orientations
T23 chain: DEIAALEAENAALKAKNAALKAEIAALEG

4H2580-AA = biological target: T24, 4H2580-AA; assay: two-hybrid library CCmax; settings: mean of both orientations
T24 chain: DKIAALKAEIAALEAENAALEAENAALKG

4H2621-AA = biological target: T25, 4H2621-AA; assay: two-hybrid library CCmax; settings: mean of both orientations
T25 chain: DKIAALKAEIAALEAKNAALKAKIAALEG

4H2699-AA = biological target: T26, 4H2699-AA; assay: two-hybrid library CCmax; settings: mean of both orientations
T26 chain: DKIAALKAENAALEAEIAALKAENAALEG

4H2728-AA = biological target: T27, 4H2728-AA; assay: two-hybrid library CCmax; settings: mean of both orientations
T27 chain: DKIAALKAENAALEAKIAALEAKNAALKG

4H2774-AA = biological target: T28, 4H2774-AA; assay: two-hybrid library CCmax; settings: mean of both orientations
T28 chain: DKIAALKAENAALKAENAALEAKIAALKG

4H2903-AA = biological target: T29, 4H2903-AA; assay: two-hybrid library CCmax; settings: mean of both orientations
T29 chain: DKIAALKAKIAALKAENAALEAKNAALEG

4H2961-AA = biological target: T30, 4H2961-AA; assay: two-hybrid library CCmax; settings: mean of both orientations
T30 chain: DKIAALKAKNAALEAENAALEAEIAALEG

4H3049-AA = biological target: T31, 4H3049-AA; assay: two-hybrid library CCmax; settings: mean of both orientations
T31 chain: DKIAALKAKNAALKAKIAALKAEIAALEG

4H3129-AA = biological target: T32, 4H3129-AA; assay: two-hybrid library CCmax; settings: mean of both orientations
T32 chain: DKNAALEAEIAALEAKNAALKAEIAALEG

4H341-AA = biological target: T33, 4H341-AA; assay: two-hybrid library CCmax; settings: mean of both orientations
T33 chain: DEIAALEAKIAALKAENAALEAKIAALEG

4H3414-AA = biological target: T34, 4H3414-AA; assay: two-hybrid library CCmax; settings: mean of both orientations
T34 chain: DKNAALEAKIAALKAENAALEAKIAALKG

4H3595-AA = biological target: T35, 4H3595-AA; assay: two-hybrid library CCmax; settings: mean of both orientations
T35 chain: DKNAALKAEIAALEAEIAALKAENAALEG

4H3629-AA = biological target: T36, 4H3629-AA; assay: two-hybrid library CCmax; settings: mean of both orientations
T36 chain: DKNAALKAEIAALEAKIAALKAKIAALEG

4H3782-AA = biological target: T37, 4H3782-AA; assay: two-hybrid library CCmax; settings: mean of both orientations
T37 chain: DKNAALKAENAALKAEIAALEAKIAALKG

4H380-AA = biological target: T38, 4H380-AA; assay: two-hybrid library CCmax; settings: mean of both orientations
T38 chain: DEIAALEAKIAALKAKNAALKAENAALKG

4H3939-AA = biological target: T39, 4H3939-AA; assay: two-hybrid library CCmax; settings: mean of both orientations
T39 chain: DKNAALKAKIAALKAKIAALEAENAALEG

4H3969-AA = biological target: T40, 4H3969-AA; assay: two-hybrid library CCmax; settings: mean of both orientations
T40 chain: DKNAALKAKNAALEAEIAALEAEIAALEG

4H446-AA = biological target: T41, 4H446-AA; assay: two-hybrid library CCmax; settings: mean of both orientations
T41 chain: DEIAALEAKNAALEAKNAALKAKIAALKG

4H464-AA = biological target: T42, 4H464-AA; assay: two-hybrid library CCmax; settings: mean of both orientations
T42 chain: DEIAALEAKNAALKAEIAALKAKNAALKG

4H483-AA = biological target: T43, 4H483-AA; assay: two-hybrid library CCmax; settings: mean of both orientations
T43 chain: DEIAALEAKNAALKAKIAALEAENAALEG

4H63-AA = biological target: T44, 4H63-AA; assay: two-hybrid library CCmax; settings: mean of both orientations
T44 chain: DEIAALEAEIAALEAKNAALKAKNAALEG

Work on DKIQELEKKNEELEREIWELEKKIQELKR [4H2438-bH] yielded an interaction score (4H2438-bH) of -0.05, an interaction score (4H2473-bH) of 1.01 and an interaction score (4H2503-bH) of 0.644. For the same binder, the interaction score (4H2588-bH) was -0.0625, the interaction score (4H2692-bH) was 0.322 and the interaction score (4H2717-bH) was 0.187. The interaction score (4H2839-bH) was 0.0743, the interaction score (4H2915-bH) was 1.73 and the interaction score (4H3057-bH) was 1.41. It also gave an interaction score (4H319-bH) of -1.85, an interaction score (4H3277-bH) of -0.355 and an interaction score (4H348-bH) of -0.861. It also gave an interaction score (4H40-bH) of -0.00537, an interaction score (4H477-bH) of 0.358 and an interaction score (4H492-bH) of -0.644. For the same binder, the interaction score (4H741-bH) was -0.318.

DKNQQLKQEIQELEQENQELEWEIQELEQ [4H3601-bN] showed an interaction score (4H3601-bN) of -1.57, an interaction score (4H3907-bN) of -1.37 and an interaction score (4H4038-bN) of -1.28.

For DENAALEAKNAALEAKIAALKAKIAALKG [4H1454-AA], the interaction score (4H1454-AA) was -1.09, the interaction score (4H1558-AA) was -0.946 and the interaction score (4H1913-AA) was -1.24. For the same binder, the interaction score (4H249-AA) was -1.11, the interaction score (4H2580-AA) was -0.961 and the interaction score (4H2621-AA) was -0.876. The interaction score (4H2699-AA) was -0.894, the interaction score (4H2728-AA) was -1.37 and the interaction score (4H2774-AA) was -1.09. For the same binder, the interaction score (4H2903-AA) was -1.74, the interaction score (4H2961-AA) was 1.04 and the interaction score (4H3049-AA) was 0.754. For the same binder, the interaction score (4H3129-AA) was -1.84, the interaction score (4H341-AA) was -1.24 and the interaction score (4H3414-AA) was -1.31. For the same binder, the interaction score (4H3595-AA) was 0.813, the interaction score (4H3629-AA) was -1.38 and the interaction score (4H3782-AA) was 0.615. For the same binder, the interaction score (4H380-AA) was -1.14, the interaction score (4H3939-AA) was -1.25 and the interaction score (4H3969-AA) was 2.05. It also gave an interaction score (4H446-AA) of -1.96, an interaction score (4H464-AA) of -1.48 and an interaction score (4H483-AA) of -0.924. It also gave an interaction score (4H63-AA) of -0.402.
